From US6376210B1, “Methods and compositions for assaying analytes” (General Atomics, priority 1999, dated 2002)

B1: wild type: wild type human placental SAH hydrolase (SEQ ID No. 1), recombinant from E. coli (protein, listed as Homo sapiens)
chain: MSDKLPYKVADIGLAAWGRKALDIAENEMPGLMRMRERYSASKPLKGARIAGCLHMTVETAVLIETLVTLGAEVQWSSCNIFSTQNHAAAAIAKAGIPVYAWKGETDEEYLWCIEQTLYFKDGPLNMILDDGGDLTNLIHTKYPQLLPGIRGISEETTTGVHNLYKMMANGILKVPAINVNDSVTKSKFDNLYGCRESLIDGIKRATDVMIAGKVAVVAGYGDVGKGCAQALRGFGARVIITEIDPINALQAAMEGYEVTTMDEACQEGNIFVTTTGCIDIILGRHFEQMKDDAIVCNIGHFDVEIDVKWLNENAVEKVNIKPQVDRYRLKNGRRIILLAEGRLVNLGCAMGHPSFVMSNSFTNQVMAQIELWTHPDKYPVGVHFLPKKLDEAVAEAHLGKLNVKLTKLTEKQAQYLGMSCDGPFKPDHYRY
modifications: Human S-adenosylhomocysteine hydrolase protein sequence
B2: F302S: mutant human SAH hydrolase, Phe302 to Ser; substrate trapping enzyme (protein, UniProt P23526 2-432, looked up, variant F302S)
Adenosylhomocysteinase: SDKLPYKVADIGLAAWGRKALDIAENEMPGLMRMRERYSASKPLKGARIAGCLHMTVETAVLIETLVTLGAEVQWSSCNIFSTQDHAAAAIAKAGIPVYAWKGETDEEYLWCIEQTLYFKDGPLNMILDDGGDLTNLIHTKYPQLLPGIRGISEETTTGVHNLYKMMANGILKVPAINVNDSVTKSKFDNLYGCRESLIDGIKRATDVMIAGKVAVVAGYGDVGKGCAQALRGFGARVIITEIDPINALQAAMEGYEVTTMDEACQEGNIFVTTTGCIDIILGRHFEQMKDDAIVCNIGHSDVEIDVKWLNENAVEKVNIKPQVDRYRLKNGRRIILLAEGRLVNLGCAMGHPSFVMSNSFTNQVMAQIELWTHPDKYPVGVHFLPKKLDEAVAEAHLGKLNVKLTKLTEKQAQYLGMSCDGPFKPDHYRY

Test system: human SAH hydrolase
Test: SAH hydrolase activity assay, hydrolytic direction (kinetic constants for SAH)
Type: biochemical
Conditions: substrate SAH; wild type vs mutant SAH hydrolase
Experimental: The cell-free extracts from colonies that inducibly overexpressed mutant SAH hydrolase proteins were chromatographed on a monoQ column (HR5/5) equipped with FPLC system. Proteins were eluted with a linear gradient of NaCl from 0 to 1 M in 10 mM sodium phosphate buffer, pH 7.0 over 35 min. The major protein peak that eluted at the same or close retention time as that of the wild type SAH hydrolase was collected. An aliquot collected mutant SAH hydrolase (1-10 μg) was incubated with [^3H]SAH (10 mCi/mmole, 200 μM) and 30 μM of 5, 5′-dithiobis (2-nitrobenzoic acid) (DTNB) at room temperature for 5-30 min.
The reaction solution was filtered through a membrane of molecular weight cut-off at 30,000 by centrifugation. The filtrate was measured at 412 nm for Hcy formation (enzyme activity) and the [^3H] radioactivity on the membrane was measured by scintillation counting after membrane washing with 1 ml of 50 mM phosphate buffer, pH 7.0.
The mutant hydrolases that show high radioactivity on the membrane and low O.D. at 412 nm of the filtrate relative to the wild type enzyme were selected as candidates for further characterization including determination of Km or Kd and binding energy (ΔG).
The assay of SAH hydrolase activity in the hydrolytic direction was performed as described in Yuan et al., J. Biol Chem., 271:28008-28016, 1996). The assay measures the hydrolysis of SAH into Ado and Hcy. The reaction product Hcy was derivatized by thiol specific reagent DTNB for colometric determination at 412 nm. The assay for SAH hydrolase in the synthetic direction was measured by the formation of SAH from substrate Ado and Hcy using HPLC (see, Yuan et al., J. Biol. Chem., 268:17030-17037 (1993). One unit of the enzyme activity was defined as the amount of enzyme that can hydrolyze or synthesize 1 μmole of SAH/min/mg.

| Molecule | Kcat (SAH) | Km |
| --- | --- | --- |
| B1 | 3.8 S^−1 | 7.9 µM |
| B2 | 0.1 S^−1 | 1 µM |
